Data taken from patent US20150133367A1 (University of Pennsylvania, published 2015).
Read-outs that look alike come from different tables or passages of the source. Positions of bridges follow the written chain, without caps; N, C: chain ends. Non-standard residues stand in square brackets, D forms with d. No end group written: not given here. alpha,alpha'‑meta‑xylylene = alpha,alpha'-meta-xylylene linker (from a,a'-dibromo-meta-xylene) bridging two cysteines via bis-thioether; Bip = N[C@@H](Cc1ccc(-c2ccccc2)cc1)C(=O)O; 2Nal = N[C@@H](Cc1ccc2ccccc2c1)C(=O)O

What was measured:
Experiment in all cases: fluorescence-based enzyme inhibition assay
[1] = target: T1, Cathepsin K (UniProt P43235 115-329)
T1 sequence (looked up): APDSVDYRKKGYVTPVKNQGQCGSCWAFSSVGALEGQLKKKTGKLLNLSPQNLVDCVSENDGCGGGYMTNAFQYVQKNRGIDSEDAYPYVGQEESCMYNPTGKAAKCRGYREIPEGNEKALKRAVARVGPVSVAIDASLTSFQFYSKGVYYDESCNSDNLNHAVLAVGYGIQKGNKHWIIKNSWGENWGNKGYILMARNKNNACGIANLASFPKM

[2] = target: Cathepsin S (UniProt P25774 115-331)
[3] = target: T2, Cathepsin L (UniProt P07711 114-333)
[4] = target: T2, Cathepsin L; remark: listed apart in the source
[5] = target: Calpain-1
[6] = target: T2, Cathepsin L; remark: listed apart in the source
[7] = target: T1, Cathepsin K; remark: listed apart in the source
[8] = target: T3, Calpain-1
T3 chain 1: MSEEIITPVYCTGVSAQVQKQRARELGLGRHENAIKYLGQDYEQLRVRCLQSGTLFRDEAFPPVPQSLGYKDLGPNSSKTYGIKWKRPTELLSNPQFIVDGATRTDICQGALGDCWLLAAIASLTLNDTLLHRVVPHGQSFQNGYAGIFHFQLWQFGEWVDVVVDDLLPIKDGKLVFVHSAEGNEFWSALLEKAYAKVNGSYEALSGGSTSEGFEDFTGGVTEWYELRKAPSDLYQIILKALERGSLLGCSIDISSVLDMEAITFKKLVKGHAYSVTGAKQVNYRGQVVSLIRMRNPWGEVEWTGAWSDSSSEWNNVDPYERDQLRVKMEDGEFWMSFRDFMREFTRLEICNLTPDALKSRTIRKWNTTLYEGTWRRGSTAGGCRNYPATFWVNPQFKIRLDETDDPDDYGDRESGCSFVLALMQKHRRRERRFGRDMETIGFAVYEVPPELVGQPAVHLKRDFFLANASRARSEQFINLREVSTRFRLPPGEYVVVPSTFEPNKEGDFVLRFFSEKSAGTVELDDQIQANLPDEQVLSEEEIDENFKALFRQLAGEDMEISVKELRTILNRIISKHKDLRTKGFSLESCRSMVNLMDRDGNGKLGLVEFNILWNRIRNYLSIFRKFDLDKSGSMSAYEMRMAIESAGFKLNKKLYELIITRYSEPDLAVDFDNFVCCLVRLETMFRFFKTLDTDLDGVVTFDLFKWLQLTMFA
T3 chain 2: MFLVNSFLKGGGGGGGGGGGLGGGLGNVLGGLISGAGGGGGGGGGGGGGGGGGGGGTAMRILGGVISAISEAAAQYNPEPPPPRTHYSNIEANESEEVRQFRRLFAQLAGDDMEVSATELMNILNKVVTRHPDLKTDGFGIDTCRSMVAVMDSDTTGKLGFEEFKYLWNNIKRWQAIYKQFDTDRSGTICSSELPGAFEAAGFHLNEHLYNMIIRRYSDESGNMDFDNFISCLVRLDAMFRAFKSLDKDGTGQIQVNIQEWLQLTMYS

T2 sequence (P07711 114-333 limits assumed): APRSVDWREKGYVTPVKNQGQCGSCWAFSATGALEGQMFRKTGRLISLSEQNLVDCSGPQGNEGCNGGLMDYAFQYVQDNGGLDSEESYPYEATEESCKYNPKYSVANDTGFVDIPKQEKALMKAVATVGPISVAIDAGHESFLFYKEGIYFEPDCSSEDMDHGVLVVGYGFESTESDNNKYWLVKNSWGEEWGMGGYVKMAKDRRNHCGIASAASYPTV
Chain of Cathepsin S (P25774 115-331 limits assumed): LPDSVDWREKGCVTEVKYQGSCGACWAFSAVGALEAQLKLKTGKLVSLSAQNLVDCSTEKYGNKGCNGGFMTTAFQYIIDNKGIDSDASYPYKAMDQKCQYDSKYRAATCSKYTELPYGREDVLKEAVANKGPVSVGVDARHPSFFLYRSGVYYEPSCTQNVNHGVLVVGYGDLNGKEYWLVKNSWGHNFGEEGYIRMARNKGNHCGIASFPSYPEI

QCEVVCKMTGL (linker 2-6 via alpha,alpha'‑meta‑xylylene) [QCEVVCKMTGL (SEQ ID NO:34)] gave a Ki [1] of 76.8 µM, a Ki [2] of 43.5 µM and a Ki [3] of 46.2 µM.

With SCEVVCKPTGL (linker 2-6 via alpha,alpha'‑meta‑xylylene) [SCEVVCKPTGL (SEQ ID NO:39)] the Ki [1] was greater than 100 µM, the Ki [2] was 58.3 µM and the Ki [3] was 48 µM.

In the case of SECFRQCMNGF (linker 3-7 via alpha,alpha'‑meta‑xylylene) [SECFRQCMNGF (SEQ ID NO:2)], the Ki [4] is reported as 84.7 µM.

With IPPK[Bip]CELLC (linker 6-10 via alpha,alpha'‑meta‑xylylene) [IPPK(bip)CELLC (SEQ ID NO:82)] the Ki [5] was 9.65 µM.

B1: IPPK(OBn-Y)CELLC (SEQ ID NO:83) (peptide)
peptide: IPPKXCELLC
modifications: Cys6 and Cys10 (i,i+4) linked by alpha,alpha'-meta-xylylene; residue 5 OBn-Y = O-benzyltyrosine
Work on B1 yielded a Ki [6] of 16.7 µM and a Ki [5] of 21.3 µM.

In the case of SCEFRCVMNGF (linker 2-6 via alpha,alpha'‑meta‑xylylene) [SCEFRCVMNGF (SEQ ID NO:3)], the Ki [7] is reported as greater than 100 µM and the Ki [4] is reported as 29.4 µM.

In the case of SCE[Bip]RCVMNG[2Nal] (linker 2-6 via alpha,alpha'‑meta‑xylylene, also called compound (IIIa)) [SCE(bip)RCVMNG(nap) (SEQ ID NO:9)], the Ki [8] is reported as 19.8 µM.
